# Source: patent US12246067
# B1: KRAS, G12V peptide … (peptide)
# peptide: LVVVGAVGV
# B2: KRAS, G12C peptide … (peptide)
# peptide: LVVVGACGV
# B3: KRAS, G12D peptide … (peptide)
# peptide: LVVVGADGV
# Biological target: HLA-A02.01 (human)
# Assay: peptide-HLA class I complex stability, method not described
# Conditions: remark: other sources report otherwise
row,Measured stability [h],Binder
1,0.6,B1
2,0.6,B2
3,0,B3

# Biological target: HLA-A02.01 (human)
# Assay: peptide-HLA class I affinity, method not described
# Conditions: remark: other sources report otherwise
row,Measured Affinity [nM],Binder
1,682,B1
2,667,B2
3,977,B3
